Experimental data: the supplement of paper PMC7877785
± gives the uncertainty stated by the source.

Experiment: self-splicing fitness, log relative to wild type (ln ratio); higher = more splicing; Tetrahymena group I intron in knt gene, E. coli kanamycin selection, DiMSum; sequences stand for … in CUCUCU…GGAGGGAAAAGUUAUCAGGCAUGCACCUGGUAGCUAGUCUUUAAACCAAUAGAUUGCAUCGGUUUAAAAGGCAAGACCGUCAAAUUGCGGGAAAGGGGUCAACAGCCGUUCAGUACCAAGUCUCAGGGGAAACUUUGAGAUGGCCUUGCAAAGGGUAUGGUAAUAAGCUGACGGACAUGGUCCUAACCACGCAGCCAAGUCCUAAGUCAACAGAUCUUCUGUUGAUAUGGAUGCAGUUCACAGACUAAAUGUCGGUCGGGGAAGAUGUAUUCUUCUCAUAAGAUAUAGUCGGACCUCUCCUUAAUGGGAGCUAGCGGAUGAAGUGAUGCAACACUGGAGCCGCUGGGAACUAAUUUGUAUGCGAAAGUAUAUUGAUUAGUUUUGGAGUACUCGUGGUCG
Outline: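 Pooled colonies went to amplicon sequencing on an Illumina HiSeq 2500 after six replicate transformations. The plates were LB agar with 100 μg/mL carbenicillin, 50 μM IPTG and 0.2% rhamnose, with or without 25 μg/mL kanamycin, incubated overnight at 37°C or 30°C. The E. coli BL21(DE3) library had all eight P1ex-region intron nucleotides randomised, the intron placed in the knt kanamycin-resistance gene on pET-22b(+). DiMSum fitness is the error-weighted combination of replicate fold changes, kanamycin against none, normalised to wild type.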

Row | Sequence | self-splicing fitness (ln) (30 °C) | self-splicing fitness (ln) (37 °C)
1 | AACAAGCAAUAUUACGCCUU | -0.742 ± 0.11 | -0.314 ± 0.12
2 | AGUCAGCAAUAUUACGCGCG | 0.157 ± 0.12 | -0.374 ± 0.13
3 | AGUGAGCAAUAUUACGCCGC | -1.96 ± 0.25 | -0.183 ± 0.22
4 | CUGAAGCAAUAUUACGAAGA | -2.5 ± 0.36 | -0.888 ± 0.25
5 | UAUGAGCAAUAUUACGUCAA |  | -2.59 ± 0.38
6 | GCGAAGCAAUAUUACGGGUC |  | -0.782 ± 0.19
7 | CCAUAGCAAUAUUACGGUCU | -3.96 ± 0.33 | -2.53 ± 0.28
8 | UGCCAGCAAUAUUACGAAGU | -2.88 ± 0.22 | -2.97 ± 0.23
9 | GCUGAGCAAUAUUACGAAUU | -2.46 ± 0.22 | -1.36 ± 0.19
10 | UGGGAGCAAUAUUACGAUUU | -3.39 ± 0.3 | 
11 | GCGUAGCAAUAUUACGAACC |  | -1.63 ± 0.36
12 | CCAGAGCAAUAUUACGGGGC | -3.91 ± 0.24 | -2.8 ± 0.21
13 | UAACAGCAAUAUUACGUGUA | -1.6 ± 0.056 | -0.0928 ± 0.06
14 | CAACAGCAAUAUUACGUAUG | -2.88 ± 0.12 | -1.35 ± 0.1
15 | CCGGAGCAAUAUUACGAGGG | -2.13 ± 0.27 | -1.47 ± 0.29
16 | GGUGAGCAAUAUUACGCAGA | -2.51 ± 0.31 | -2.52 ± 0.33
17 | GAGAAGCAAUAUUACGUGUG | -2.18 ± 0.12 | -1.96 ± 0.15
18 | UCGAAGCAAUAUUACGAACG | -1.82 ± 0.13 | -0.935 ± 0.14
19 | UCUUAGCAAUAUUACGGUUA |  | -2.37 ± 0.39
20 | CACUAGCAAUAUUACGUUCC | -3.39 ± 0.17 | -1.65 ± 0.17
21 | CCCAAGCAAUAUUACGGCAC | -4.31 ± 0.36 | -2.5 ± 0.21

Row | Sequence | self-splicing fitness (ln) (30 °C) | self-splicing fitness (ln) (37 °C)
22 | GACAAGCAAUAUUACGUCAG | -3.3 ± 0.23 | -2.21 ± 0.2
23 | CCCUAGCAAUAUUACGAAGU | -4.34 ± 0.28 | -2.89 ± 0.27
24 | AUCGAGCAAUAUUACGCACC | -1.65 ± 0.18 | 
25 | UCACAGCAAUAUUACGACAC | -3.44 ± 0.38 | -2.71 ± 0.34
26 | CAGCAGCAAUAUUACGUCAU | -4.22 ± 0.33 | -2.77 ± 0.23
27 | CGUCAGCAAUAUUACGAUCC | -1.62 ± 0.086 | -0.418 ± 0.13
28 | UGGGAGCAAUAUUACGAAGA | -2.99 ± 0.47 | -2.68 ± 0.33
29 | UGCCAGCAAUAUUACGCGAU | -2.42 ± 0.17 | -1.88 ± 0.23
30 | GUAAAGCAAUAUUACGUCAC | -2.16 ± 0.096 | -1.56 ± 0.12
31 | CCAGAGCAAUAUUACGACAA |  | -2.03 ± 0.45
32 | CAUAAGCAAUAUUACGGAAG | -1.43 ± 0.075 | -0.578 ± 0.096
33 | CGUGAGCAAUAUUACGGGGU | -3.62 ± 0.2 | -3.32 ± 0.26
34 | AGCUAGCAAUAUUACGAGAC | -2.16 ± 0.24 | -2.14 ± 0.31
35 | AGAAAGCAAUAUUACGGUCG | -0.278 ± 0.07 | -0.0273 ± 0.092
36 | AUCAAGCAAUAUUACGAGCG | -1.92 ± 0.12 | -1.21 ± 0.14
37 | GUUAAGCAAUAUUACGACGU | -0.121 ± 0.059 | 0.426 ± 0.069
38 | CCCGAGCAAUAUUACGUUCU | -3.61 ± 0.25 | -2.1 ± 0.25
39 | UUCGAGCAAUAUUACGAACG | -2.89 ± 0.29 | -0.783 ± 0.33
40 | CCUCAGCAAUAUUACGCCUA | -2.6 ± 0.21 | -1.6 ± 0.2
41 | CUUUAGCAAUAUUACGACUA |  | -1.32 ± 0.42
42 | CAUUAGCAAUAUUACGAGUC |  | -1.48 ± 0.37

Row | Sequence | self-splicing fitness (ln) (30 °C) | self-splicing fitness (ln) (37 °C)
43 | GAACAGCAAUAUUACGAAGG | -2.59 ± 0.17 | -3.26 ± 0.28
44 | GUAUAGCAAUAUUACGAUCC | -0.716 ± 0.18 | 1.03 ± 0.22
45 | GCUUAGCAAUAUUACGCAAA | -2.95 ± 0.27 | -1.51 ± 0.2
46 | CACUAGCAAUAUUACGCGUG | -3.99 ± 0.21 | -3.12 ± 0.25
47 | ACUUAGCAAUAUUACGCUUA | -1.26 ± 0.15 | -1.75 ± 0.21
48 | CCAGAGCAAUAUUACGGGGG | -3.72 ± 0.46 | -2.44 ± 0.31
49 | GGCAAGCAAUAUUACGGUGU | -1.2 ± 0.059 | -0.54 ± 0.09
50 | UAUCAGCAAUAUUACGCGAU |  | -2.49 ± 0.23
51 | ACCUAGCAAUAUUACGAACA | -2.24 ± 0.29 | 0.383 ± 0.2
52 | AUUUAGCAAUAUUACGCAGU | -3 ± 0.28 | -2.18 ± 0.26
53 | CUUUAGCAAUAUUACGAAGG | -1.23 ± 0.11 | -1.85 ± 0.21
54 | AAACAGCAAUAUUACGUAGA | -2.31 ± 0.1 | -0.368 ± 0.092
55 | CGUAAGCAAUAUUACGAUUA | -2.03 ± 0.23 | -1.64 ± 0.32
56 | GCACAGCAAUAUUACGGACU | -0.665 ± 0.082 | -0.54 ± 0.086
57 | CACGAGCAAUAUUACGUCAA | -2.34 ± 0.17 | -2.13 ± 0.23
58 | AUAUAGCAAUAUUACGGCCG | -1.15 ± 0.2 | -0.566 ± 0.25
59 | GUACAGCAAUAUUACGGGUA | -2.08 ± 0.13 | -1.93 ± 0.15
60 | UGCAAGCAAUAUUACGCGAC | -3.46 ± 0.19 | -2.65 ± 0.23
61 | UGAAAGCAAUAUUACGAGUU | -3.31 ± 0.15 | -0.915 ± 0.095
62 | AAAGAGCAAUAUUACGCUAA |  | -1.52 ± 0.28
63 | UCUGAGCAAUAUUACGUUGU | -4.12 ± 0.21 | -1.96 ± 0.18

Row | Sequence | self-splicing fitness (ln) (30 °C) | self-splicing fitness (ln) (37 °C)
64 | UCUCAGCAAUAUUACGUCGA | -2.07 ± 0.11 | -0.925 ± 0.12
65 | AUGCAGCAAUAUUACGUACC | -0.541 ± 0.084 | 0.409 ± 0.1
66 | CGCCAGCAAUAUUACGCAGC | -2.96 ± 0.34 | -2.4 ± 0.38
67 | GAAGAGCAAUAUUACGUUUG | -4.05 ± 0.2 | -2.8 ± 0.23
68 | UCGGAGCAAUAUUACGGAUA | -2.51 ± 0.35 | -1.96 ± 0.29
69 | AAUUAGCAAUAUUACGCUGC |  | -2.79 ± 0.4
70 | AUAUAGCAAUAUUACGCGAA |  | -1.32 ± 0.23
71 | UCCGAGCAAUAUUACGGUGG | -2.76 ± 0.14 | -2.31 ± 0.2
72 | CUACAGCAAUAUUACGGGUG | -0.249 ± 0.037 | -0.538 ± 0.053
73 | CGUAAGCAAUAUUACGAUAC |  | -2.9 ± 0.47
74 | CUCGAGCAAUAUUACGCCGG | -3.32 ± 0.43 | -1.17 ± 0.34
75 | UCUGAGCAAUAUUACGAGCG | -1.93 ± 0.15 | -2.37 ± 0.39
76 | GCUGAGCAAUAUUACGCACU | -1.78 ± 0.17 | -0.125 ± 0.2
77 | AUAUAGCAAUAUUACGCGAU | -2.69 ± 0.33 | -1.57 ± 0.49
78 | GUGAAGCAAUAUUACGAUCC | -3.08 ± 0.31 | 0.244 ± 0.18
79 | UACUAGCAAUAUUACGGACC |  | -1.13 ± 0.33
80 | AAUGAGCAAUAUUACGGAUA | -1.86 ± 0.27 | -1.8 ± 0.37
81 | UUGCAGCAAUAUUACGUACA | 0.118 ± 0.11 | -0.0402 ± 0.13
